From patent US20130101582A1, “Tiki1 and Tiki2, Wnt Inhibitors” (CHILDREN'S MEDICAL CENTER CORPORATION, priority 2010, published 2013)

Assays:
Wnt3a signaling = assay: TOPFLASH reporter assay, Wnt3a co-transfected with Tiki1 or Tiki2 in HEK293T cells; assay type: cell-based, human
From the text: Wnt3a and Tiki1 or Tiki2 were co-transfected. The TOPFLASH reading (normalized to Renilla) in Wnt3a alone was set as 100. DNA transfection amounts are shown per well in a standard 24-well plate format. Representative data from one of three independent experiments is shown.
The enlarged head phenotype by Tiki1 overexpression is indistinguishable from that by overexpression of Dkk1, a Wnt/LRP6 antagonist (MacDonald, B. T. et al., Dev Cell 17, 9-26 (2009); Glinka, A. et al., Nature 391, 357-362 (1998)). […] Thus Tiki1 likely acts at or upstream of Wnt receptors. […] Xenopus Tiki2, and human Tiki1 and Tiki2 also behaved as Wnt antagonists in Xenopus embryos, HEK293T cells (FIG. 2C) and mouse L cells (FIG. 5A).

TOPFLASH reporter = TOPFLASH reporter activation by Wnt3a produced from Tiki2-expressing L cells; assay type: cell-based; details: Wnt3a CM
From the text: (§1) As Tiki proteins are related to bacterial proteins of unknown function, it was speculated that Tiki may antagonize Wnt signaling through a novel mechanism, possibly in an enzymatic fashion. Human Tiki2 was stably expressed in L cells or Wnt3a-expressing L cells (human Tiki1 was poorly expressed in L cells). […] In fact Wnt3a CM restored beta-catenin stabilization in Wnt3a-expressing cells that also expressed Tiki2 (FIG. 5A).

Wnt3a = Wnt3a (Mus musculus, UniProt P27467); assay: Triton X-114 phase separation of Wnt3a secreted from Tiki-expressing cells; assay type: cell-based; parameters: expressed in transfected cells; host or cells: mouse L cells (Wnt3a-expressing); HEK293T
Sequence of Wnt3a (P27467 19-352): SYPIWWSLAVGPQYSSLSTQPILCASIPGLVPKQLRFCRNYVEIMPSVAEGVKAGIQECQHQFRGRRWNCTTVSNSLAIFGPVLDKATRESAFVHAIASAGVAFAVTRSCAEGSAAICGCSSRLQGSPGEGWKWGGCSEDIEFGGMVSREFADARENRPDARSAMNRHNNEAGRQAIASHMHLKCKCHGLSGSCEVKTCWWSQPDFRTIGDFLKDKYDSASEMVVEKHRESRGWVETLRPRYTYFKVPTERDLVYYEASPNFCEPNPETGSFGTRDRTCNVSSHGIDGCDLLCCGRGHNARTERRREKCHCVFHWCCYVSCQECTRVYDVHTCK
From the text: FIG. 6A is a gel showing that Tiki inactivates Wnt3a by regulating Wnt3a acylation/palmitoylation. A Triton X-114 phase separation experiment is shown in 6A. […] T, total; Aq, aqueous; De, detergent.
FIG. 6B is a gel showing that Wnt3a secreted from Tiki1 or Tiki2 but not GFP-expressing HEK293T cells partitioned in the aqueous phase.
C77 palmitoylation is required for Wnt3a activity (Willert, K. et al., Nature 423, 448-452 (2003)) and binding to both Fz and LRP6 (Komekado, H. et al., Genes Cells 12, 521-534 (2007); Cong, F. et al., Development 131, 5103-5115 (2004)), while S209 acylation is critical for Wnt3a secretion (Takada, R. et al., Dev Cell 11, 791-801 (2006)). Thus Tiki proteins may affect C77 palmitoylation but not S209 acylation. The palmitate adduct at C77 is the primary contributor to Wnt3a hydrophobicity because palmitoylated Wnt3a is partitioned in the Triton X-114 detergent phase whereas Wnt3a lacking the palmitate is soluble in the aqueous phase (Willert, K. et al., Nature 423, 448-452 (2003); Komekado, H. et al., Genes Cells 12, 521-534 (2007)).

mFz8CRD-IgG = target: T1, mFz8CRD-IgG (Mus musculus, UniProt Q61091); assay: Binding of Wnt3a CM to mFz8CRD-IgG, protein G precipitation
T1 construct: using the extracellular domain of mouse Fz8 (mFz8CRD-IgG) or LRP6 (LRP6N-IgG)
T1 sequence (Q61091 30-151 limits assumed): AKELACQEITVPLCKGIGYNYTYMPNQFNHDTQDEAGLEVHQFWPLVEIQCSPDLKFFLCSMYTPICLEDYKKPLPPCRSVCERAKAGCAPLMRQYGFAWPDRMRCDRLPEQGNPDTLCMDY
Protocol: Wnt3a CM was incubated with LRP6N-IgG or mFz8CRD-IgG. The protein complexes were precipitated by protein G agarose and subjected for Western blotting.
as §1

B1: Tiki2: Human Tiki2 (XP 371250/LOC388630) (SEQ ID NO:2), expressed in L or HEK293T cells (protein, listed as Homo sapiens)
chain: MHAALAGPLLAALLATARARPQPPDGGQCRPPGSQRDLNSFLWTIRRDPPAYLFGTIHVPYTRVWDFIPDNSKAAFQASTRVYFELDLTDPYTISALASCQLLPHGENLQDVLPHELYWRLKRHLDYVKLMMPSWMTPAQRGKGLYADYLFNAIAGNWERKRPVWVMLMVNSLTERDVRFRGVPVLDLYLAQQAEKMKKTTGAVEQVEEQCHPLNNGLNFSQVLFALNQTLLQQESVRAGSLQASYTTEDLIKHYNCGDLSAVIFNHDTSQLPNFINTTLPPHEQVTAQEIDSYFRQELIYKRNERMGKRVMALLRENEDKICFFAFGAGHFLGNNTVIDILRQAGLEVDHTPAGQAIHSPAPQSPAPSPEGTSTSPAPVTPAAAVPEAPSVTPTAPPEDEDPALSPHLLLPDSLSQLEEFGRQRKWHKRQSTHQRPRQFNDLWVRIEDSTTASPPPLPLQPTHSSGTAKPPFQLSDQLQQQDPPGPASSSAPTLGLLPAIATTIAVCFLLHSLGPS
Wnt3a signaling, TOPFLASH reporter (Wnt3a signaling): inhibit Wnt3a signaling
Activity of Wnt3a produced from Tiki2-expressing L cells in activation of TOPFLASH reporter expression (TOPFLASH reporter): minimal activity
Partitioning of secreted Wnt3a in Triton X-114 phase separation (Wnt3a; HEK293T cells): partitioned exclusively in the aqueous phase
Partitioning of secreted Wnt3a in Triton X-114 phase separation (Wnt3a; L cells): partitioned exclusively in the aqueous phase
Binding of Wnt3a secreted from Tiki2-expressing cells to Fz (mFz8CRD-IgG) (mFz8CRD-IgG): failed to bind to either Fz or LRP6
